Test results from US20180171001A1.

Assays:
Assay in all cases: cell-based or functional assay
[1] = biological target: Env of HIV-1 strain 231965.c1 (HIV-1)
[2] = biological target: Env of HIV-1 strain 250-4 (HIV-1)
[3] = biological target: Env of HIV-1 strain 251-18 (HIV-1)
[4] = biological target: Env of HIV-1 strain 3016.v5.c45 (HIV-1)
[5] = biological target: Env of HIV-1 strain 3365.v2.c20 (HIV-1)
[6] = biological target: Env of HIV-1 strain 3415.v1.c1 (HIV-1)
[7] = biological target: Env of HIV-1 strain Du172.17 (HIV-1)
[8] = biological target: Env of HIV-1 strain H086.8 (HIV-1)
[9] = biological target: Env of HIV-1 strain PVO.4 (HIV-1)
[10] = biological target: Env of HIV-1 strain R1166.c1 (HIV-1)
[11] = biological target: Env of HIV-1 strain REJO4541.67 (HIV-1)
[12] = biological target: Env of HIV-1 strain X1254_c3 (HIV-1)
[13] = biological target: Env of HIV-1 strain YU2.DG (HIV-1)
[14] = biological target: Env of HIV-1 strain ZM109F.PB4 (HIV-1)
[15] = biological target: Env of HIV-1 strain ZM53M.PB12 (HIV-1)
[16] = biological target: Env of MuLV

Binder | neutralization IC50 [1] | neutralization IC50 [2] | neutralization IC50 [3] | neutralization IC50 [4] | neutralization IC50 [5] | neutralization IC50 [6] | neutralization IC50 [7] | neutralization IC50 [8] | neutralization IC50 [9] | neutralization IC50 [10] | neutralization IC50 [11] | neutralization IC50 [12] | neutralization IC50 [13] | neutralization IC50 [14] | neutralization IC50 [15] | neutralization IC50 [16]
γ3κ5 (antibody, V domains shown) VH: QIHLVQSGTEVKKPGSSVTVSCKAYGVNTFGLYAVSWVRQAPGQRLEYIGQIRRWKSSASHHFRGRVTVSAVDPTGSSPPISSLEIRDLTTDDTAVYFCTTTSTSDYWSGLHNERGTAFSSWGQGTLISVSA VL: DIQMTQSPSTLSASTGDTVRISCRASQSITGNWVAWYQQRPGKAPRLLIYRGAALLGGVPSRFRGSAAGTDFTLTIGNLQAEDFGTFYCQQYDTYPGTFGQGTKVEVKR | 0.697 µg/mL | > 15 µg/mL | 0.721 µg/mL | 0.314 µg/mL | > 15 µg/mL | > 15 µg/mL | 3.73 µg/mL | 0.434 µg/mL | 0.081 µg/mL | 2.07 µg/mL | 0.097 µg/mL | 1.72 µg/mL | 0.2 µg/mL | > 15 µg/mL | > 15 µg/mL | > 15 µg/mL
γ59κ5 (antibody, V domains shown) VH: QIHLVQSGTEVKKPGSSVTVSCKAYGVNTFGLYAVNWVRQAPGQGLEYIGQIWRWKSSASHHFRGRVLISAVDLTGSSPPISSLEIKNVTSDDTAVYFCTTTSTYDEWSDLHHDGVMAFSSWGQGTLISVSA VL: DIQMTQSPSTLSASTGDTVRISCRASQSITGNWVAWYQQRPGKAPRLLIYRGAALLGGVPSRFRGSAAGTDFTLTIGNLQAEDFGTFYCQQYDTYPGTFGQGTKVEVKR | > 15 µg/mL | > 15 µg/mL | 6.96 µg/mL | > 15 µg/mL | > 15 µg/mL | > 15 µg/mL | > 15 µg/mL | > 15 µg/mL | > 15 µg/mL | 28.2 µg/mL | 4.67 µg/mL | 9.42 µg/mL | 7.28 µg/mL | > 15 µg/mL | 24.1 µg/mL | > 30 µg/mL
γ23κ11 (antibody, V domains shown) VH: QIHLVQSGTEVKKPGSSVTVSCKAYGVNTFGLYAVNWVRQAPGQSLEYIGQIWRWKSSASHHFRGRVIISAVDLTGSSPPISSLEIKNLTSDDTAVYFCTTTSTSDYWSGLHHDGVMAFSSWGQGTLISVSA VL: DIQMTQSPSTLSASVGGTVRISCRASQSITGGWLAWYHQRPGKAPRLLIYRGSRLLGGVPSRFSGSAAGTDFTLTIANLQAEDFGTFYCQQYDTYPGTFGQGTKVEVKR | 0.543 µg/mL | > 15 µg/mL | 2.49 µg/mL | 0.159 µg/mL | > 15 µg/mL | > 15 µg/mL | 11.3 µg/mL | > 15 µg/mL | 0.103 µg/mL | 1.61 µg/mL | 0.14 µg/mL | 1.7 µg/mL | 0.34 µg/mL | > 15 µg/mL | > 15 µg/mL | > 30 µg/mL
γ15κ11 (antibody, V domains shown) VH: QIHLVQSGTEVKKPGSSVTVSCKAYGVNTFGLYAVNWVRQAPGQSLEYIGQIWRWKSSASHHFRGRVIISAVDLTGSSPPISSLEIKNLTSDDTAVYFCTTASTYDKWSGLHHDGVMAFSSWGQGTLISVSA VL: DIQMTQSPSTLSASVGGTVRISCRASQSITGGWLAWYHQRPGKAPRLLIYRGSRLLGGVPSRFSGSAAGTDFTLTIANLQAEDFGTFYCQQYDTYPGTFGQGTKVEVKR | 5.1 µg/mL | > 15 µg/mL | > 15 µg/mL | 1.32 µg/mL | > 15 µg/mL | > 15 µg/mL | > 15 µg/mL | > 15 µg/mL | 6.7 µg/mL | 9.81 µg/mL | > 15 µg/mL | 13.7 µg/mL | 4.12 µg/mL | > 15 µg/mL | > 15 µg/mL | > 30 µg/mL
γ22κ11 (antibody, V domains shown) VH: QIHLVQSGTEVKKPGSSVTVSCKAYGVNTFGLYAVNWVRQAPGQSLEYIGQIWRWKSSASHHFRGRVLISAVDLTGPSPPISSLEIKNLTSDDTAVYFCTTTSTYDKWSGLHHDGVMAFSSWGQGTLISVSA VL: DIQMTQSPSTLSASVGGTVRISCRASQSITGGWLAWYHQRPGKAPRLLIYRGSRLLGGVPSRFSGSAAGTDFTLTIANLQAEDFGTFYCQQYDTYPGTFGQGTKVEVKR | > 15 µg/mL | > 15 µg/mL | > 15 µg/mL | > 15 µg/mL | > 15 µg/mL | > 15 µg/mL | > 15 µg/mL | > 15 µg/mL | > 15 µg/mL | > 15 µg/mL | > 15 µg/mL | > 15 µg/mL | > 15 µg/mL | > 15 µg/mL | > 15 µg/mL | > 30 µg/mL
γ23κ5 (antibody, V domains shown) VH: QIHLVQSGTEVKKPGSSVTVSCKAYGVNTFGLYAVNWVRQAPGQSLEYIGQIWRWKSSASHHFRGRVIISAVDLTGSSPPISSLEIKNLTSDDTAVYFCTTTSTSDYWSGLHHDGVMAFSSWGQGTLISVSA VL: DIQMTQSPSTLSASTGDTVRISCRASQSITGNWVAWYQQRPGKAPRLLIYRGAALLGGVPSRFRGSAAGTDFTLTIGNLQAEDFGTFYCQQYDTYPGTFGQGTKVEVKR | 0.291 µg/mL | > 15 µg/mL | 0.176 µg/mL | 0.091 µg/mL | > 15 µg/mL | 1.48 µg/mL | 1.81 µg/mL | 0.474 µg/mL | 0.043 µg/mL | 1.07 µg/mL | 0.091 µg/mL | 0.919 µg/mL | 0.136 µg/mL | > 15 µg/mL | 5.88 µg/mL | > 30 µg/mL
γ20κ11 (antibody, V domains shown) VH: QIHLVQSGTEVKKPGSSVAVSCKAYGVNTFGLYAVNWVRQAPGQSLEYIGQIWRWKSSASHDFRGRVIISAVDLTGSSPPISSLEIKNLTSDDTAVYFCTATSTPDYWSGLHHDGVMAFSSWGQGTLISVSA VL: DIQMTQSPSTLSASVGGTVRISCRASQSITGGWLAWYHQRPGKAPRLLIYRGSRLLGGVPSRFSGSAAGTDFTLTIANLQAEDFGTFYCQQYDTYPGTFGQGTKVEVKR | > 15 µg/mL | > 15 µg/mL | > 15 µg/mL | > 15 µg/mL | > 15 µg/mL | > 15 µg/mL | > 15 µg/mL | > 15 µg/mL | > 15 µg/mL | 20.2 µg/mL | > 15 µg/mL | 7.5 µg/mL | > 15 µg/mL | > 15 µg/mL | > 15 µg/mL | > 30 µg/mL
γ22κ5 (antibody, V domains shown) VH: QIHLVQSGTEVKKPGSSVTVSCKAYGVNTFGLYAVNWVRQAPGQSLEYIGQIWRWKSSASHHFRGRVLISAVDLTGPSPPISSLEIKNLTSDDTAVYFCTTTSTYDKWSGLHHDGVMAFSSWGQGTLISVSA VL: DIQMTQSPSTLSASTGDTVRISCRASQSITGNWVAWYQQRPGKAPRLLIYRGAALLGGVPSRFRGSAAGTDFTLTIGNLQAEDFGTFYCQQYDTYPGTFGQGTKVEVKR | 0.69 µg/mL | > 15 µg/mL | 1.7 µg/mL | 0.103 µg/mL | > 15 µg/mL | > 15 µg/mL | > 15 µg/mL | > 15 µg/mL | 0.352 µg/mL | 2.4 µg/mL | 0.795 µg/mL | 1.52 µg/mL | 0.569 µg/mL | > 15 µg/mL | > 15 µg/mL | > 30 µg/mL
γ3κ11 (antibody, V domains shown) VH: QIHLVQSGTEVKKPGSSVTVSCKAYGVNTFGLYAVSWVRQAPGQRLEYIGQIRRWKSSASHHFRGRVTVSAVDPTGSSPPISSLEIRDLTTDDTAVYFCTTTSTSDYWSGLHNERGTAFSSWGQGTLISVSA VL: DIQMTQSPSTLSASVGGTVRISCRASQSITGGWLAWYHQRPGKAPRLLIYRGSRLLGGVPSRFSGSAAGTDFTLTIANLQAEDFGTFYCQQYDTYPGTFGQGTKVEVKR | 0.455 µg/mL | > 15 µg/mL | > 15 µg/mL | 0.145 µg/mL | > 15 µg/mL | > 15 µg/mL | > 15 µg/mL | 0.778 µg/mL | 0.074 µg/mL | 1.79 µg/mL | 0.091 µg/mL | 2.31 µg/mL | 0.276 µg/mL | > 15 µg/mL | > 15 µg/mL | > 30 µg/mL
